Measured values: the supplement of paper PMC10567573

B1: ZNF8 (parent)
chain: SLGRHKRTHTGEKPYTCSVCGKSF
B2: TEKT4 (parent)
chain: SEVEELNMSLTALREKLLEAEQSL

Variants of: B1
Assay: protein stability index of a GFP-peptide fusion (GPS, HEK-293T) (PSI 1-6); higher = more stable
Details: c terminus: a fixed tail appended
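Also: lentivirally expressed fusions sorted by FACS into six bins by GFP to DsRed ratio, PSI derived from sequencing read proportions per bin multiplied by bin number.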

| Variant | protein stability index |
| --- | --- |
| S23E | 3.03 |
| S23H | 3.12 |
| S23M | 2.18 |
| S23L | 2.69 |
| S23W | 2.12 |
| S23G | 2.94 |
| S23P | 2.39 |
| S23R | 3.2 |
| S23N | 2.9 |
| S23Y | 2.79 |
| S23K | 3.3 |
| S23D | 3.3 |
| S23T | 3.32 |
| S23V | 1.95 |
| S23Q | 2.25 |
| S23I | 2.8 |
| S23A | 2.5 |
| S23F | 2.38 |
| S23C | 2.48 |
| K22E | 3.66 |
| K22F | 2.54 |
| K22C | 2.54 |

| Variant | protein stability index |
| --- | --- |
| K22R | 3.09 |
| K22T | 3.37 |
| K22H | 3.12 |
| K22L | 2.36 |
| K22I | 2.05 |
| K22Y | 3.41 |
| K22A | 2.82 |
| K22M | 2.07 |
| K22P | 3.29 |
| K22G | 2.19 |
| K22V | 2.48 |
| K22S | 2.34 |
| K22N | 2.87 |
| K22D | 3.01 |
| K22Q | 2.47 |
| F24K | 3.62 |
| F24D | 3.83 |
| F24L | 3.02 |
| F24N | 3.27 |
| F24Q | 2.69 |
| F24R | 2.92 |
| F24W | 2.93 |

| Variant | protein stability index |
| --- | --- |
| F24M | 2.85 |
| F24S | 3.44 |
| F24I | 2.92 |
| F24A | 3.1 |
| F24C | 4.13 |
| F24P | 3.5 |
| F24T | 2.24 |
| F24V | 3.27 |
| F24H | 4.04 |
| F24Y | 2.45 |
| G21T | 3.14 |
| G21V | 2.17 |
| G21W | 1.88 |
| G21P | 3.12 |
| G21K | 3.36 |
| G21L | 1.9 |
| G21M | 2.71 |
| G21N | 2.98 |
| G21S | 2.94 |
| G21Q | 2.59 |
| G21R | 3.03 |
| G21Y | 1.92 |

Variants of: B2
Assay: as above
Details: c terminus: a fixed tail appended

| Variant | protein stability index |
| --- | --- |
| N7Y | 3.42 |
| N7H | 2.43 |
| N7G | 2.94 |
| N7L | 2.31 |
| N7K | 2.84 |
| N7W | 2.1 |
| N7F | 1.89 |
| N7C | 2.48 |
| N7R | 3.92 |
| N7M | 2.31 |
| N7I | 3.09 |
| N7D | 3.24 |
| N7E | 2.56 |
| N7Q | 2.67 |
| N7T | 2.63 |
| N7S | 2.97 |
| N7A | 2.35 |
| N7P | 3.42 |
| N7V | 1.95 |
| L10G | 3.74 |
| L10D | 4.03 |
| L10H | 3.26 |
| L10T | 3.29 |
| L10S | 3.64 |
| L10R | 3.97 |

| Variant | protein stability index |
| --- | --- |
| L10A | 3.75 |
| L10I | 1.9 |
| L10N | 4.09 |
| L10M | 2.64 |
| L10E | 3.55 |
| L10W | 2.68 |
| L10C | 3.15 |
| L10V | 2.25 |
| L10F | 3.23 |
| L10Q | 4.14 |
| L10K | 3.73 |
| L10Y | 2.93 |
| V3Q | 3.4 |
| V3A | 3.61 |
| V3M | 2.63 |
| V3S | 3.29 |
| V3E | 3.98 |
| V3W | 2.4 |
| V3F | 2.83 |
| V3R | 2.83 |
| V3L | 3.51 |
| V3H | 3.29 |
| V3I | 3.16 |
| V3K | 2.45 |
| V3D | 3.64 |

| Variant | protein stability index |
| --- | --- |
| V3P | 3.47 |
| V3N | 2.57 |
| V3Y | 2.95 |
| V3T | 2.99 |
| V3G | 3.67 |
| V3C | 3.39 |
| L13V | 4.55 |
| L13Q | 4.47 |
| L13M | 3.32 |
| L13C | 4.68 |
| L13A | 4.86 |
| L13T | 5.4 |
| L13K | 4.76 |
| L13F | 4.49 |
| L13W | 3.18 |
| L13E | 5.42 |
| L13S | 4.8 |
| L13P | 4.47 |
| L13R | 4.83 |
| L13N | 4.87 |
| L13I | 4.14 |
| L13Y | 4.34 |
| L13G | 5.15 |
| L13H | 5.21 |
| L13D | 5.55 |

| Variant | protein stability index |
| --- | --- |
| E2D | 3.06 |
| E2R | 3.06 |
| E2S | 2.34 |
| E2P | 3.14 |
| E2T | 2.41 |
| E2I | 2.42 |
| E2F | 1.76 |
| E2C | 2.66 |
| E2K | 2.19 |
| E2W | 1.98 |
| E2N | 2.55 |
| E2G | 2.31 |
| E2Y | 1.68 |
| E2Q | 2.69 |
| E2L | 2.72 |
| E2H | 2.3 |
| E2A | 2.84 |
| E2M | 2.74 |
| E2V | 2.45 |
| S1A | 3.43 |
| S1L | 2.96 |
| S1I | 2.37 |
| S1C | 2.63 |
| S1Q | 3.52 |
| S1D | 3.64 |

| Variant | protein stability index |
| --- | --- |
| S1P | 2.94 |
| S1Y | 2.31 |
| S1V | 2.76 |
| S1R | 2.19 |
| S1T | 2.6 |
| S1F | 2.31 |
| S1W | 2.26 |
| S1M | 2.27 |
| S1G | 3.25 |
| S1K | 2.23 |
| S1E | 3.28 |
| S1N | 2.2 |
| S1H | 3.19 |
| E4H | 2.06 |
| E4I | 2.59 |
| E4K | 2.24 |
| E4R | 2.02 |
| E4Q | 2.32 |
| E4L | 2.26 |
| E4C | 2.29 |
| E4D | 2.63 |
| E4Y | 1.99 |
| E4T | 2.59 |
| E4N | 3.12 |
| E4G | 2.89 |

| Variant | protein stability index |
| --- | --- |
| E4S | 2.71 |
| E4A | 1.86 |
| E4F | 2.34 |
| E4P | 2.73 |
| E4V | 2.58 |
| E4M | 2.07 |
| E4W | 1.68 |
| E15D | 2.97 |
| E15F | 2.27 |
| E15A | 2.2 |
| E15C | 2.24 |
| E5K | 2.6 |
| E5V | 2.64 |
| E5N | 2.63 |
| E5H | 2.72 |
| E5Y | 2.03 |
| E5P | 2.63 |
| E5L | 2.43 |
| E5M | 2.22 |
| E5R | 2.35 |
| E5W | 1.79 |
| E5D | 2.63 |
| E5Q | 2.72 |
| E5G | 2.73 |
| E5I | 1.95 |

| Variant | protein stability index |
| --- | --- |
| E5S | 3.06 |
| E5C | 2.31 |
| E5F | 2.76 |
| E5A | 2.37 |
| E5T | 2.54 |
| A12Q | 2.29 |
| A12M | 1.9 |
| A12T | 2.3 |
| A12K | 3.17 |
| A12V | 3.06 |
| A12S | 2.46 |
| A12G | 2.56 |
| A12C | 2.15 |
| A12H | 2.76 |
| A12W | 2.56 |
| A12P | 4.15 |
| A12D | 3.48 |
| A12L | 2.27 |
| A12R | 2.54 |
| A12F | 2.37 |
| A12Y | 2.47 |
| A12I | 2.36 |
| A12E | 2.38 |
| A12N | 1.73 |
| L6S | 3.71 |

| Variant | protein stability index |
| --- | --- |
| L6E | 4.33 |
| L6M | 3.47 |
| L6D | 4.41 |
| L6H | 3.31 |
| L6A | 3.81 |
| L6Q | 3.51 |
| L6G | 3.95 |
| L6R | 2.87 |
| L6I | 2.76 |
| L6C | 3.71 |
| L6F | 3 |
| L6N | 3.89 |
| L6T | 3.02 |
| L6K | 3.75 |
| L6Y | 2.6 |
| L6V | 3.58 |
| L6W | 2.95 |
| L6P | 3.99 |
| T11I | 2.35 |
| T11K | 3.15 |
| T11Q | 3.65 |
| T11E | 4.1 |
| T11W | 2.09 |
| T11D | 4.13 |
| T11M | 2.51 |

| Variant | protein stability index |
| --- | --- |
| T11S | 2.92 |
| T11Y | 1.81 |
| T11A | 3.49 |
| T11P | 3.31 |
| T11G | 3.02 |
| T11L | 2.8 |
| T11V | 2.36 |
| T11H | 2.5 |
| T11F | 1.76 |
| T11N | 3.02 |
| T11R | 3.1 |
| T11C | 2.82 |
| R14E | 4.63 |
| R14W | 2.58 |
| R14P | 5.3 |
| R14N | 4.79 |
| R14D | 5.52 |
| R14V | 2.07 |
| R14S | 4.41 |
| R14G | 4.19 |
| R14Q | 3.99 |
| R14F | 2.42 |
| R14I | 2.83 |
| R14T | 3.62 |
| R14C | 3.37 |

| Variant | protein stability index |
| --- | --- |
| R14Y | 2.46 |
| R14A | 3.48 |
| R14M | 2.02 |
| R14H | 3.87 |
| R14L | 2.05 |
| R14K | 3.94 |
| M8Y | 2.37 |
| M8N | 2.41 |
| M8C | 2.27 |
| M8R | 2.12 |
| M8S | 2.81 |
| M8E | 3.29 |
| M8G | 4.32 |
| M8H | 2.96 |
| M8F | 3.02 |
| M8Q | 2.56 |
| M8V | 3.77 |
| M8I | 3.17 |
| M8W | 2.28 |
| M8L | 3.36 |
| M8K | 2.77 |
| M8A | 2.9 |
| M8D | 3.5 |
| M8P | 3.99 |
| M8T | 3.25 |

| Variant | protein stability index |
| --- | --- |
| S9V | 1.66 |
| S9G | 2.61 |
| S9L | 2.3 |
| S9R | 3.13 |
| S9D | 3.57 |
| S9C | 2.6 |
| S9W | 2.85 |
| S9Y | 2.33 |
| S9F | 2.28 |
| S9N | 3.06 |
| S9T | 2.67 |
| S9E | 2.95 |
| S9P | 2.85 |
| S9M | 2.4 |
| S9H | 3.28 |
| S9A | 3 |
| S9I | 2.14 |
| S9K | 2.82 |
